# Experimental data from PMC4943715, “Expression of Biphenyl Synthase Genes and Formation of Phytoalexin Compounds in Three Fire Blight-Infected Pyrus communis Cultivars” (PLoS ONE, 2016).
# Residue numbers refer to the chain shown, from its start.
# B1: PcBIS1 (Pyrus communis) (protein)
# chain: MAPLVKNHVEPPHAKILAIGTANPPNVYYQKDYPDFLFRVTKNEHRTDLREKFDRICEKSRTRKRYLYLTEEILNANPSIYTYGAPSLDVRQDMLNPEVPKLGQQAALKAIKEWGQPISKITHLIFCTASCVDMPGADFQLVKLLGLNPSVTRTMIYEAGCYAGATVLRLAKDFAENNEDARVLVVCAEITTVFFHGLTDTHLDILVGQALFADGASAVIVGANPEPEIERPLFEIVACRQTIIPNSEHGVVANIREMGFNYYLSGDVPKFVGGSVVDFLTKTFEKVDGKNKDWNSLFLSVHPGGPAIVDQVEEQLGLKEGKLRATRHVLSEYGNMGAPSVHFILDEMRNKSIGEGKATTGEGLEWGVVIGIGPGLTVETAVLRSESIPC
# B2: PcBIS2 (Pyrus communis) (protein)
# chain: B1 chain with R231S, D267E, S275N, L299F, N350K, G354E
# Tests used:
# Assay in all cases: product formation, HPLC-DAD of ethyl acetate extract; Hanes plot
# Format in all cases: biochemical, Pyrus communis
# [1] = substrate: CC(C)(COP(=O)(O)OP(=O)(O)OC[C@H]1O[C@@H](n2cnc3c(N)ncnc32)[C@H](O)[C@@H]1OP(=O)(O)O)[C@@H](O)C(=O)NCCC(=O)NCCSC(=O)c1ccccc1O; settings: malonyl-CoA at saturation, 0.1 M potassium phosphate pH 7.0, 35°C, 5 min
# Description: (§1) product formation, HPLC-DAD of ethyl acetate extract; Hanes plot on PcBIS1
# [2] = substrate: CC(C)(COP(=O)(O)OP(=O)(O)OC[C@H]1O[C@@H](n2cnc3c(N)ncnc32)[C@H](O)[C@@H]1OP(=O)(O)O)[C@@H](O)C(=O)NCCC(=O)NCCSC(=O)c1ccccc1; settings: malonyl-CoA at saturation, 0.1 M potassium phosphate pH 7.0, 35°C, 5 min
# Description: as §1
# [3] = substrate: CC(C)(COP(=O)(O)OP(=O)(O)OC[C@H]1O[C@@H](n2cnc3c(N)ncnc32)[C@H](O)[C@@H]1OP(=O)(O)O)[C@@H](O)C(=O)NCCC(=O)NCCSC(=O)CC(=O)O; settings: benzoyl-CoA as starter at saturation, 0.1 M potassium phosphate pH 7.0, 35°C, 5 min
# Description: as §1
# [4] = substrate: CC(C)(COP(=O)(O)OP(=O)(O)OC[C@H]1O[C@@H](n2cnc3c(N)ncnc32)[C@H](O)[C@@H]1OP(=O)(O)O)[C@@H](O)C(=O)NCCC(=O)NCCSC(=O)c1ccccc1O; settings: malonyl-CoA at saturation, 0.1 M potassium phosphate pH 7.0, 35°C, 5 min; remark: listed apart in the source
# Description: (§2) product formation, HPLC-DAD of ethyl acetate extract; Hanes plot on PcBIS2
# [5] = substrate: CC(C)(COP(=O)(O)OP(=O)(O)OC[C@H]1O[C@@H](n2cnc3c(N)ncnc32)[C@H](O)[C@@H]1OP(=O)(O)O)[C@@H](O)C(=O)NCCC(=O)NCCSC(=O)c1ccccc1; settings: malonyl-CoA at saturation, 0.1 M potassium phosphate pH 7.0, 35°C, 5 min; remark: listed apart in the source
# Description: as §2
# [6] = substrate: CC(C)(COP(=O)(O)OP(=O)(O)OC[C@H]1O[C@@H](n2cnc3c(N)ncnc32)[C@H](O)[C@@H]1OP(=O)(O)O)[C@@H](O)C(=O)NCCC(=O)NCCSC(=O)CC(=O)O; settings: benzoyl-CoA as starter at saturation, 0.1 M potassium phosphate pH 7.0, 35°C, 5 min; remark: listed apart in the source
# Description: as §2
protein,measurement,setting,value
B1,Km,[1],78.4 ± 4.8 µM
same,kcat,[1],0.77 ± 0.075 s⁻¹
same,kcat/Km,[1],9820 M⁻¹ s⁻¹
same,Km,[2],1.1 ± 0.2 µM
same,kcat,[2],0.055 ± 0.005 s⁻¹
same,kcat/Km,[2],50000 M⁻¹ s⁻¹
same,Km,[3],13.7 ± 2.9 µM
B2,Km,[4],95.2 ± 5.4 µM
same,kcat,[4],0.89 ± 0.09 s⁻¹
same,kcat/Km,[4],9350 M⁻¹ s⁻¹
same,Km,[5],0.9 ± 0.1 µM
same,kcat,[5],0.035 ± 0.00167 s⁻¹
same,kcat/Km,[5],38900 M⁻¹ s⁻¹
same,Km,[6],11.6 ± 2.2 µM
